Data as given in patent US20260216242A1 (ALMAC DISCOVERY, published 2026).
Substitutions are numbered along the chain they refer to. Numbers in names are those of the source.

T1: human ALPI on CHO cells (human, UniProt P09923 20-503)
T1 construct: whole, on cells; also called CHO-ALPI
T1 sequence (looked up): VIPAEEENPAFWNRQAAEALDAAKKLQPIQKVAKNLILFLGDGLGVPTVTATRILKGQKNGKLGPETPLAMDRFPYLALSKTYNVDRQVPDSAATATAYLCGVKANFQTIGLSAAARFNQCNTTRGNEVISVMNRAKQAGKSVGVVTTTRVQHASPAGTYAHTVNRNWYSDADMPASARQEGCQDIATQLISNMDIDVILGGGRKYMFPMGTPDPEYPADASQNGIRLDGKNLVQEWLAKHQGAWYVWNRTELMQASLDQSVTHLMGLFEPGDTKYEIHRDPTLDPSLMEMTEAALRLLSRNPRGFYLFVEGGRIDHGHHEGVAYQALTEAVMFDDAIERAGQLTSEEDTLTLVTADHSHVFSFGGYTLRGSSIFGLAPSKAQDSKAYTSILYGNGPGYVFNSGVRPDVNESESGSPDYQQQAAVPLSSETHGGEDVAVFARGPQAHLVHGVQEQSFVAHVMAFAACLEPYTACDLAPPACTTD

T2: human ALPL on CHO cells (human, UniProt P05186 18-501)
T2 construct: whole, on cells; also called CHO-ALPL
T2 sequence (looked up): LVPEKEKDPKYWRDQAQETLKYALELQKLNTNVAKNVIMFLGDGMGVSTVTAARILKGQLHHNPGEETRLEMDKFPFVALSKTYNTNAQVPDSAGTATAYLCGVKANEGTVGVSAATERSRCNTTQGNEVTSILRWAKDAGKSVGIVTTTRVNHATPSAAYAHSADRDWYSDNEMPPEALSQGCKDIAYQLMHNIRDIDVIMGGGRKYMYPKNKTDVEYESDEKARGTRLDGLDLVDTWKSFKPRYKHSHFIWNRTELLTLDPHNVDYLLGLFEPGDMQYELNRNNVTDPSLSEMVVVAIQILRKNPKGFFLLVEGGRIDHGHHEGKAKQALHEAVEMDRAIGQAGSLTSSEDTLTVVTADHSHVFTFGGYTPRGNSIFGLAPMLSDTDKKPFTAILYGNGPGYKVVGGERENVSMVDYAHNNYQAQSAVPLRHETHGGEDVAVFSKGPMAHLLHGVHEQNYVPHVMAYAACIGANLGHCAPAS

B1: D10-E06 hFc-vcPAB-MMAE [G4S]3 (Fc fusion, DAR 4)
chain 1: QVQLVESGGGLVQPGGSLRLSCAASGSIFSVNTMGWYRQAPGKQRDLVAVATSGGTIHYADSVKGRFTISRDNAKNTVYLQMNSLKPEDTAVYYCNLVVPYGMIAGDHDYWGQGTKVTVSSGGGGSGGGGSGGGGSEPKSSDKTHTCPPCPAPELLGGPCVFLFPPKPKDTLMISRTPEVTCVVVDVSHEDPEVKFNWYVDGVEVHNAKTKPREEQYNSTYRVVSVLTVLHQDWLNGKEYKCKVSNKALPAPIEKTISKAKGQPREPQVYTLPPSRDELTKNQVSLYCLVKGFYPSDIAVEWESNGQPENNYKTTPPVLDSDGSFFLYSKLTVDKSRWQQGNVFSCSVMHEALHNHYTQKSLCLSPGK
chain 2: QVHLVESGGGLVQAGGSLRLSCAASRRSFSEYAMGWFRQAPGKEREFVAAIGWSGVIEYADSVKGRFTISRDNAKDTVYLQMNSLKPEDTAVYYCAAGLGIRVVSQTPAYWGQGTQVTVSSGGGGSGGGGSGGGGSEPKSSDKTHTCPPCPAPELLGGPCVFLFPPKPKDTLMISRTPEVTCVVVDVSHEDPEVKFNWYVDGVEVHNAKTKPREEQYNSTYRVVSVLTVLHQDWLNGKEYKCKVSNKALPAPIEKTISKAKGQPREPQVYTLPPSRDELTKNQVSLTCLVKGFYPSDIAVEWESNGQPENNYKTTPPVLDSDGSFFLTSKLTVDKSRWQQGNVFSCSVMHEALHNHYTQKSLCLSPGK
modifications: MC-vc-PAB-MMAE on Cys 239 and Cys 442 (EU numbering)
notes: Biparatopic drug conjugate, DAR 4; also called #634
B2: D10-E10 hFc-vcPAB-MMAE [G4S]3 (Fc fusion, DAR 4)
chain 1: B1 chain 1
chain 2: QVQLVESGGGLVQAGGSLRLSCAVSGRALSDYNIGWFRQAPGKEREFVARKTWDGSSTRYDDSVKGRFTVSIEDAKNTAYLQMSSLKTEDTAVYYCAAGRYSRARGWEYDYWGQGTQVTVSSGGGGSGGGGSGGGGSEPKSSDKTHTCPPCPAPELLGGPCVFLFPPKPKDTLMISRTPEVTCVVVDVSHEDPEVKFNWYVDGVEVHNAKTKPREEQYNSTYRVVSVLTVLHQDWLNGKEYKCKVSNKALPAPIEKTISKAKGQPREPQVYTLPPSRDELTKNQVSLTCLVKGFYPSDIAVEWESNGQPENNYKTTPPVLDSDGSFFLTSKLTVDKSRWQQGNVFSCSVMHEALHNHYTQKSLCLSPGK
modifications: MC-vc-PAB-MMAE on Cys 239 and Cys 442 (EU numbering)
notes: Biparatopic drug conjugate, DAR 4
B3: D10-F05 hFc-vcPAB-MMAE [G4S]3 (Fc fusion, DAR 4)
chain 1: B1 chain 1
chain 2: B2 chain 2 with V24A, L29F, S30G, K51R, E73D, D74N, S84N, A104V
modifications: MC-vc-PAB-MMAE on Cys 239 and Cys 442 (EU numbering)
notes: Biparatopic drug conjugate, DAR 4; also called #637
B4: D10-E06-hFc-vcPAB-MMAE [G4S]1 (Fc fusion, DAR 4)
chain 1: QVQLVESGGGLVQPGGSLRLSCAASGSIFSVNTMGWYRQAPGKQRDLVAVATSGGTIHYADSVKGRFTISRDNAKNTVYLQMNSLKPEDTAVYYCNLVVPYGMIAGDHDYWGQGTKVTVSSGGGGSEPKSSDKTHTCPPCPAPELLGGPCVFLFPPKPKDTLMISRTPEVTCVVVDVSHEDPEVKFNWYVDGVEVHNAKTKPREEQYNSTYRVVSVLTVLHQDWLNGKEYKCKVSNKALPAPIEKTISKAKGQPREPQVYTLPPSRDELTKNQVSLYCLVKGFYPSDIAVEWESNGQPENNYKTTPPVLDSDGSFFLYSKLTVDKSRWQQGNVFSCSVMHEALHNHYTQKSLCLSPGK
chain 2: QVHLVESGGGLVQAGGSLRLSCAASRRSFSEYAMGWFRQAPGKEREFVAAIGWSGVIEYADSVKGRFTISRDNAKDTVYLQMNSLKPEDTAVYYCAAGLGIRVVSQTPAYWGQGTQVTVSSGGGGSEPKSSDKTHTCPPCPAPELLGGPCVFLFPPKPKDTLMISRTPEVTCVVVDVSHEDPEVKFNWYVDGVEVHNAKTKPREEQYNSTYRVVSVLTVLHQDWLNGKEYKCKVSNKALPAPIEKTISKAKGQPREPQVYTLPPSRDELTKNQVSLTCLVKGFYPSDIAVEWESNGQPENNYKTTPPVLDSDGSFFLTSKLTVDKSRWQQGNVFSCSVMHEALHNHYTQKSLCLSPGK
modifications: MC-vc-PAB-MMAE on Cys 239 and Cys 442 (EU numbering)
notes: as for B2
B5: D10-E10-hFc-vcPAB-MMAE [G4S]1 (Fc fusion, DAR 4)
chain 1: B4 chain 1
chain 2: QVQLVESGGGLVQAGGSLRLSCAVSGRALSDYNIGWFRQAPGKEREFVARKTWDGSSTRYDDSVKGRFTVSIEDAKNTAYLQMSSLKTEDTAVYYCAAGRYSRARGWEYDYWGQGTQVTVSSGGGGSEPKSSDKTHTCPPCPAPELLGGPCVFLFPPKPKDTLMISRTPEVTCVVVDVSHEDPEVKFNWYVDGVEVHNAKTKPREEQYNSTYRVVSVLTVLHQDWLNGKEYKCKVSNKALPAPIEKTISKAKGQPREPQVYTLPPSRDELTKNQVSLTCLVKGFYPSDIAVEWESNGQPENNYKTTPPVLDSDGSFFLTSKLTVDKSRWQQGNVFSCSVMHEALHNHYTQKSLCLSPGK
modifications: MC-vc-PAB-MMAE on Cys 239 and Cys 442 (EU numbering)
notes: as for B2
B6: D10-F05-hFc-vcPAB-MMAE [G4S]1 (Fc fusion, DAR 4)
chain 1: B4 chain 1
chain 2: B5 chain 2 with V24A, L29F, S30G, K51R, E73D, D74N, S84N, A104V
modifications: MC-vc-PAB-MMAE on Cys 239 and Cys 442 (EU numbering)
notes: Biparatopic drug conjugate, DAR 4; also called #679

Each binder was assayed against T1, human ALPI on CHO cells (assay: flow cytometry, CHO cells stably expressing human ALPI; PDC detected with FITC anti-human Ab).
Method: (§1) Biparatopic VHH-hFc drug conjugates were assessed for human ALPP, ALPPL2, ALPI and ALPL cell-surface binding by flow cytometry. Binders were screened on CHO cells stably expressing human ALPP, ALPPL2, ALPI or ALPL.
(§2) Cell surface binding of test agents to hALPP isoforms was characterized in four CHO-ALPP isoform transfectant cell lines (CHO-ALPP, CHO-ALPPL2, CHO-ALPI and CHO-ALPL) and the resulting KDapp values determined. Adherent cells were detached from tissue culture flasks by incubating with 0.1% EDTA/PBS solution at 37° C. for […] or until cells detached easily. Cells were re-suspended in ice-cold PBS/2% FCS in 15 ml tubes and centrifuged at 1700 rpm for 5 mins at 4° C. Supernatant was removed and the cell pellet re-suspended in PBS/2% FCS. […] Cells were incubated with 100 μl of test agents at a range of concentrations, plus controls for 1 hr on ice. The sample plate was centrifuged at 1700 rpm for 5 mins at 4° C. The supernatant was removed, and a wash performed by re-suspending the cell pellets in 0.25 mL of ice-cold PBS/2% FCS using a multichannel pipette. Samples were again centrifuged at 1700 rpm for 5 min at 4° C. Supernatant was removed and two further washes performed as described. After the final wash and centrifugation step, excess liquid was removed by blotting the plate on tissue paper. Binding of VHH-hFc agents was determined by adding 100 μl of Fitc-anti-human Ab (ThermoFisher) and incubating for 30 mins on ice in the dark. Wash steps were performed as described previously. All cell pellets were finally re-suspended in 0.28 ml of ice-cold PBS/2% FCS and left on ice in the dark prior to analysis on a Merck-Millipore Guava EasyCyte HT or Thermo Fisher Attune N×T flow cytometer.

Binding result, no binding (tested: 350 nM):
B1
B2
B3
B4
B5
B6

These binders were tested against T2, human ALPL on CHO cells (assay: flow cytometry, CHO cells stably expressing human ALPL; PDC detected with FITC anti-human Ab).
Method: as §1, §2

Binding result, no binding (tested: 350 nM):
B1
B2
B3
B4
B5
B6
